Where no end group is shown, it is not given here. The star is where a group is joined. Octanoyl = CCCCCCCC(=O)*
Legend:
anti-hGhrelin Fab 2291 [1] = test: competitive ELISA; competitor at 1 µg/ml preincubated with Fab 2291 0.1 µg/ml, OD of Fab bound to BSA-hGhrelin wells
anti-hGhrelin Fab 2291 [2] = test: competitive ELISA; competitor at 5 µg/ml preincubated with Fab 2291 0.1 µg/ml, OD of Fab bound to BSA-hGhrelin wells
anti-hGhrelin Fab 2291 [3] = test: competitive ELISA; competitor at 0.2 µg/ml preincubated with Fab 2291 0.1 µg/ml, OD of Fab bound to BSA-hGhrelin wells

anti-hGhrelin Fab 2291, sequence (VH, as listed by the source, chain 1 of 2): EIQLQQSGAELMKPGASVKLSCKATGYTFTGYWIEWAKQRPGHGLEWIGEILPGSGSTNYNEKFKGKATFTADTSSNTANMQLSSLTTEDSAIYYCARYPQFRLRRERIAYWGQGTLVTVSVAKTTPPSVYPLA
anti-hGhrelin Fab 2291, sequence (VL, as listed by the source, chain 2 of 2): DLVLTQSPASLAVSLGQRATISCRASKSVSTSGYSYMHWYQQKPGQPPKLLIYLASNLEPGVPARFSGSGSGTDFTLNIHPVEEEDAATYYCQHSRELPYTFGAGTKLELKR

GSSFLSPEH(Octanoyl)QRVQQRKESKKPPAKLQPR [hGhrelin-His9-acylated] was tested, and the Ave. OD (490 nm) (anti-hGhrelin Fab 2291 [1]) was 0.69 OD (490 nm), the Ave. OD (490 nm) (anti-hGhrelin Fab 2291 [2]) was 0.702 OD (490 nm) and the Ave. OD (490 nm) (anti-hGhrelin Fab 2291 [3]) was 0.607 OD (490 nm).

In the case of GSSFLSPEHQRVQQRKESKKPPAKLQPR [des-acyl-hGhrelin, full-length, non-acylated human ghrelin], the Ave. OD (490 nm) (anti-hGhrelin Fab 2291 [1]) is reported as 0.663 OD (490 nm), the Ave. OD (490 nm) (anti-hGhrelin Fab 2291 [2]) is reported as 0.729 OD (490 nm) and the Ave. OD (490 nm) (anti-hGhrelin Fab 2291 [3]) is reported as 0.633 OD (490 nm).
